Measured values from paper PMC8154254, “On the Track of Long-Range Electron Transfer in B-Type Dye-Decolorizing Peroxidases: Identification of a Tyrosyl Radical by Computational Prediction and Electron Paramagnetic Resonance Spectroscopy” (Biochemistry, 2021).

What follows are substances tested on CCn1c(=NN=c2sc3cc(S(=O)(=O)O)ccc3n2CC)sc2cc(S(=O)(=O)O)ccc21 (assay: purified protein). Details: 40 μM H2O2, 100 nM enzyme, 50 mM phosphate-citrate pH 5.0, room temperature.

Row | Substance | Km [µM] | kcat [s⁻¹] | kcat/Km [M⁻¹ s⁻¹]
1 | KpDyP (B-type Klebsiella pneumoniae dye-decolorizing peroxidase) (Klebsiella pneumoniae; W18F) | 54 ± 8 | 4.7 | 86000
2 | KpDyP (B-type Klebsiella pneumoniae dye-decolorizing peroxidase) (Klebsiella pneumoniae; W18F/Y92F) | 84 ± 8 | 6.5 | 77000
3 | KpDyP (B-type Klebsiella pneumoniae dye-decolorizing peroxidase) (Klebsiella pneumoniae; Y237F) | 36 ± 7 | 4.6 | 125000
4 | KpDyP (B-type Klebsiella pneumoniae dye-decolorizing peroxidase) (Klebsiella pneumoniae; Y247F) | 270 ± 16 | 8.7 | 33000
5 | KpDyP (B-type Klebsiella pneumoniae dye-decolorizing peroxidase) (Klebsiella pneumoniae; Y247F/Y92F) | 345 ± 73 | 12.8 | 37000
